{
  "source": "paper PMC5005036",
  "about": "“PDZD7-MYO7A complex identified in enriched stereocilia membranes” (eLife, 2016)",
  "binders": {"B1": {"name": "mCherry-PDZD7 (mouse), in HEK293 (natural protein, UniProt E9Q9W7 1-1021, looked up)", "chain": "MARGFTVGFDPLGLGELSSGSLSSVSSRGHLGSDSGSTATRYLLRKQQRLLNGPSRGIRASSPMGRVILINSPIEANSDESDIIHAVRVEKSPSGRLGFSVRGGSEHGLGIFVSKVEEGSSAERAGLCVGDKITEVNGLSLESTTMGSAVRLLTSSSCLHMMVRRMGRVPGIKFSKEKTTWVDVVNRRLVVEKCSSTPSDRSSEDGVRRIVHLYTTSDDFCLGFNIRGGKEFGLGIYVSKVDHGGLAEENGIKVGDQVLAANGVRFDDISHSQAVEVLKGQTHIMLTIKETGRYPAYKEMVSEYCWLDRLSNGVLQQLSPASESSSSVSSYASSAPCSSGSLPSDRMDVCLGPEEPTSHGPGWGRADTAMQTEPDLDSRVETWCSVRPTVILRDTAIRSDGPSSTRHLDSALSESPKTALLLALSRPRTPITRSQSHLTLWEEKKQRKKEKSGSSGEKGALQRSKTLMNLFFKGGRQGRPAGDGHREAWTLDSRSPTKVRPRLDLEKAGSVGPVQKFVTWRLRRDRERGRALLSARSGSPSGQAPTVNEQVQAWESRRPLIQDLARRLLTDDEVLAVTRHCSRYVHEGGVEDLVRPLLAILDRPTKLLLLRDIRSVVAPTDLGRFDSMVMPVELEAFEALKSRAVGPSALRPTRQDTPPKRHLITPVPDSRGGFYLLPVNSSEDEDGEIREKLGVLKVSLGASAPHHKGIPPLQDVPVDAFSLRRGACAPPPQPPPVAPRPPRPNWLLTEPLSREDTQQNQSQTPAQSCSRSRSRSRSRSHSRGQGKSPGRRRSPSPAPIATAATANGRYHRPRKARPLLPRLLDGQVAKVGARQGPLENGRIAEEAVGNVSTGALRTITLSKMKQSLGISISGGIESKVQPMVKIEKIFPGGAAFLCGDLQAGFELVAVDGESLEQVTHQRAVDTIRRAYRNKAREPMELVVRVPGPGLLPLASDLRVVKDQSLAPDCPSALGPVDDARILTQLPPPEARQLQQSLSSALKVPQSIPKLSPILKDPHDPS", "notes": "PDZD7, mouse, cloned into pmCherry-C1; also called PDZD7 fused to mCherry; source: HEK293, transfected, in RIPA extract; not shown: mCherry, N-terminal, kept"}},
  "target": "T1, GFP-MYO7A (mouse) (mouse, UniProt P97479 1-2215)",
  "T1 construct": "MYO7A (myosin VIIA), mouse, in pEGFP-C1; plasmid obtained from David Corey; source: HEK293, transfected, in RIPA extract; not shown: GFP, N-terminal, kept",
  "T1 sequence (P97479 whole entry)": "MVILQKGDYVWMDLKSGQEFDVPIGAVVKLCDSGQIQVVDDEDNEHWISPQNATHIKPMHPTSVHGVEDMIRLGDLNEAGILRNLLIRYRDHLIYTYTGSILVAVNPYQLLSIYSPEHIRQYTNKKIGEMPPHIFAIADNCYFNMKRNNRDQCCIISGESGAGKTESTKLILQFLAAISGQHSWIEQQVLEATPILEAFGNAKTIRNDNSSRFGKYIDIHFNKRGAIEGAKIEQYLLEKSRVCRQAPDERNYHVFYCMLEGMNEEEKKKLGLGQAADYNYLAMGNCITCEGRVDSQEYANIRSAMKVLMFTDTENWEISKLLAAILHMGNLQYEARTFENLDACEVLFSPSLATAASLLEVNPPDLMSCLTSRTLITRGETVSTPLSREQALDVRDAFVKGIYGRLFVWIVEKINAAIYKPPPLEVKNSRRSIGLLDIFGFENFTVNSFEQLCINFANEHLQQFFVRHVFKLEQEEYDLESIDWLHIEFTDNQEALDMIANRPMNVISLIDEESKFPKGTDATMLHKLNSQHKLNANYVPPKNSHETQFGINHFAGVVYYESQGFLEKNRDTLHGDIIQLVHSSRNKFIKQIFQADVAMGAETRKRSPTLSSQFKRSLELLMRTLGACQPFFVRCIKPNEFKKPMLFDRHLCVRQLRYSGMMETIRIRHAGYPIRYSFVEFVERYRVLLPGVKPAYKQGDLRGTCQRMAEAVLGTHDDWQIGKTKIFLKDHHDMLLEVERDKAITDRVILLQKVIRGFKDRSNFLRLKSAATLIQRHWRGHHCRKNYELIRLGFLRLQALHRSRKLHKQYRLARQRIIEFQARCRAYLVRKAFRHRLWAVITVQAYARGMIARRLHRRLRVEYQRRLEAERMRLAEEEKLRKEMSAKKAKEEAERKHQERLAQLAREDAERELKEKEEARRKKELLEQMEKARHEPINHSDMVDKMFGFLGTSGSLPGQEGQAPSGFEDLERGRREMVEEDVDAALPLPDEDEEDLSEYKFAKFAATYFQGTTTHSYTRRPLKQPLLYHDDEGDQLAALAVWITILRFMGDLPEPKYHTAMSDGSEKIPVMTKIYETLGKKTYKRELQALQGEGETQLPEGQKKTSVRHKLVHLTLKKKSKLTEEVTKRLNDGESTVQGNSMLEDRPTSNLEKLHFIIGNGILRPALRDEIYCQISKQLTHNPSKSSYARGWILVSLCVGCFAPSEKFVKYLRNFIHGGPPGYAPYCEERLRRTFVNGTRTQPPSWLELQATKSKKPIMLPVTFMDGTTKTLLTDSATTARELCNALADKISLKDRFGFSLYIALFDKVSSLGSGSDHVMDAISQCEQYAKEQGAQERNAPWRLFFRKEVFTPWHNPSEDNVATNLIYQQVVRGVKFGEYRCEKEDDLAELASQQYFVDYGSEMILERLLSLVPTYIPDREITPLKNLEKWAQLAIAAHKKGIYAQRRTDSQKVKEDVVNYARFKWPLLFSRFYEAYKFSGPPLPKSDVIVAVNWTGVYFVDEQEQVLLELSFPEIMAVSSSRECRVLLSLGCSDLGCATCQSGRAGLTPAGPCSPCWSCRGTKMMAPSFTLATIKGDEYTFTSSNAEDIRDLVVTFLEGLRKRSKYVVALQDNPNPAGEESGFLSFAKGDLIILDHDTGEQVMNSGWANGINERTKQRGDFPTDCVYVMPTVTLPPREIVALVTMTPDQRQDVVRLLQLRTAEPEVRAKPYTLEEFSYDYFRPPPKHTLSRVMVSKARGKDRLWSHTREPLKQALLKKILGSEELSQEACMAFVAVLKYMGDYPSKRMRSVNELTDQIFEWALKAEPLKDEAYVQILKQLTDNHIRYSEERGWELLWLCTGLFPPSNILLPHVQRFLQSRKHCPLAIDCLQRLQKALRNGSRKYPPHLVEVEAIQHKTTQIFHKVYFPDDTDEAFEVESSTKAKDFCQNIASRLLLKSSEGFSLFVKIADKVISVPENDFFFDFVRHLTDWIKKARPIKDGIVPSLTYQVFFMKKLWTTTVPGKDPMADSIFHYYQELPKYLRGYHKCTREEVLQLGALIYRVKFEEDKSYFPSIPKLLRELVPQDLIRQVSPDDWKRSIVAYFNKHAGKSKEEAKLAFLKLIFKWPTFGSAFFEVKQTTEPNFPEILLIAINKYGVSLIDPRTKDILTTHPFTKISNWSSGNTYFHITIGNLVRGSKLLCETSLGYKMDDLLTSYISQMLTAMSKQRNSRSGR",
  "test": "affinity purification with mass spectrometry; HEK293 cells transfected; RIPA extract; 138-1 immunoprecipitates analysed by shotgun mass spectrometry, two technical replicates",
  "conditions": "partners not purified",
  "data": [
    {"binder": "B1", "values": [
      {"measurement": "level in the 138-1 immunoprecipitate relative to MYO7A", "value": "~0.4", "unit": "x"}
    ]}
  ]
}
